The target in assay [1] is EGFRvIII (CHO cells) (human). The experiment in a line: FACS, CHO cells 37C.
In assay [2] the target is T1, human FcγRIIIb (NA1) CD16B (human, UniProt O75015).
T1 chain: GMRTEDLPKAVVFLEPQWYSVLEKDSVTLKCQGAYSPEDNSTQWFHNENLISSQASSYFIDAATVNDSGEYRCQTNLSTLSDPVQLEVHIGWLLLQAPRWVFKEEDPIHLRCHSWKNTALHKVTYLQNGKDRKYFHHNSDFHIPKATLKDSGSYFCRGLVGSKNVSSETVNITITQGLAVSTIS
The experiment in a line: SPR. For orientation: In SPR one partner is held on a chip, and binding of the other changes the refractive index at the surface.

In assay [3] the target is T2, human FcγRIIc (CD32C) (human, UniProt P31995).
T2 chain: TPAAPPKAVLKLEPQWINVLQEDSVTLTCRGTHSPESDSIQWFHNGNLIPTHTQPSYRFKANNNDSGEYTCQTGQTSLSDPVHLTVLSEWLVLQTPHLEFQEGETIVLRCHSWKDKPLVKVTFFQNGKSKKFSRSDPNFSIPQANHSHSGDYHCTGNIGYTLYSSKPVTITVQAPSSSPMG
In words: SPR.

Assay [4] concerns the target T3, murine FcγRIIb (mouse, UniProt P08101).
T3 chain: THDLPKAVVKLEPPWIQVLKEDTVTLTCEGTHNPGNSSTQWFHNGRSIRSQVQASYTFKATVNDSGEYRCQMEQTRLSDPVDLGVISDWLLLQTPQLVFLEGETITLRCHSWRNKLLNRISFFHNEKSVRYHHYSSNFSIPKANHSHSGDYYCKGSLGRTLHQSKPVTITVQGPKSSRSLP
The experiment in a line: SPR.

Assay [5] concerns the target T4, cynomolgus FcγRIIa (CD32A) (cynomolgus).
T4 chain: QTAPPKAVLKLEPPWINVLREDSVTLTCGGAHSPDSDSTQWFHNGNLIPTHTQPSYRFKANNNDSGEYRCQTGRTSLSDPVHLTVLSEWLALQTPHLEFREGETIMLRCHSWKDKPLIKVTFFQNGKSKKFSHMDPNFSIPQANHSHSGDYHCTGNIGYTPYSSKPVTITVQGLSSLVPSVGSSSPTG
In words: SPR.

In assay [6] the target is T5, human FcγRIIb (CD32B) (human, UniProt P31994).
T5 chain: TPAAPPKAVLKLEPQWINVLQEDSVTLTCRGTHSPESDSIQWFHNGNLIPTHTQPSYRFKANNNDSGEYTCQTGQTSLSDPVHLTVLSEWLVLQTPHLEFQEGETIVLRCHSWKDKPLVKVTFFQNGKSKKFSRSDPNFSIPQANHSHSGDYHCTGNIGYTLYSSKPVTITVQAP
In words: SPR.

Assay [7] addresses T6, murine FcγRI (mouse, UniProt P26151).
T6 chain: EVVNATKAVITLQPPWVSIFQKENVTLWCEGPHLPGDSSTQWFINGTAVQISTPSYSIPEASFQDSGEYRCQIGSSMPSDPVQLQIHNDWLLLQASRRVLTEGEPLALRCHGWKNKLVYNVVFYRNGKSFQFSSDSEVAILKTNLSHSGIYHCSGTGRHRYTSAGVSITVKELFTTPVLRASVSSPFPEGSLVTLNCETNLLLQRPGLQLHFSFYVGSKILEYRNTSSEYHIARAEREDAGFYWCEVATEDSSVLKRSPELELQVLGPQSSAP
In words: SPR.

For assay [8], the target named is T7, human FcγRIIa (CD32A) (human, UniProt P12318).
T7 chain: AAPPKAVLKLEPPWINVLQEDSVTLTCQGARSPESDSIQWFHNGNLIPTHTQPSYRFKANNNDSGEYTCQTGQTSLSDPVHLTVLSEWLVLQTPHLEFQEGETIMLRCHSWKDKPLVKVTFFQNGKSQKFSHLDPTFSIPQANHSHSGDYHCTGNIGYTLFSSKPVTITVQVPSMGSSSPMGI
In words: SPR.

Assay [9] has as its target T8, murine FcγRIV (CD16-2) (mouse, UniProt A0A0B4J1G0).
T8 chain: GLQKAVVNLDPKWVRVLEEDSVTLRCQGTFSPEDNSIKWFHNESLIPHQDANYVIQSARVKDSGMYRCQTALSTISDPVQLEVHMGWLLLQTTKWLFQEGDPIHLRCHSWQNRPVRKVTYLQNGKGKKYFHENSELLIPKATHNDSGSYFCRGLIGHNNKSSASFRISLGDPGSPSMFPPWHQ
In words: SPR.

Assay [10] addresses T9, human FcγRI (CD64) (human, UniProt P12314).
T9 chain: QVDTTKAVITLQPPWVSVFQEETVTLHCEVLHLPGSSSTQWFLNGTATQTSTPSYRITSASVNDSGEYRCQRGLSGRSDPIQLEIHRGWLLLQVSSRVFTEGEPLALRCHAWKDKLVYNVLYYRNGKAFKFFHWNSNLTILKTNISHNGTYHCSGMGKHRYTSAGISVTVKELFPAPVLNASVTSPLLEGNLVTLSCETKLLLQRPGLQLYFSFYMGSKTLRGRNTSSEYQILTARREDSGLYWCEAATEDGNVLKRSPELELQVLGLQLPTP
The experiment in a line: SPR.

Assay [11] concerns the target T10, murine FcγRIII (mouse, UniProt P08508).
T10 chain: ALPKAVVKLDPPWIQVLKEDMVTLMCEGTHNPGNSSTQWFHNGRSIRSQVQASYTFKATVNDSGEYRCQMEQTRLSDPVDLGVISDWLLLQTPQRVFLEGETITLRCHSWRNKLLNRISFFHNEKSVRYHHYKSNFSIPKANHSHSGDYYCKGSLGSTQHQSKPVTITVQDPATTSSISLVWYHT
The experiment in a line: SPR.

Assay [12] concerns the target T11, murine FcRn (mouse, UniProt Q61559).
T11 chain 1: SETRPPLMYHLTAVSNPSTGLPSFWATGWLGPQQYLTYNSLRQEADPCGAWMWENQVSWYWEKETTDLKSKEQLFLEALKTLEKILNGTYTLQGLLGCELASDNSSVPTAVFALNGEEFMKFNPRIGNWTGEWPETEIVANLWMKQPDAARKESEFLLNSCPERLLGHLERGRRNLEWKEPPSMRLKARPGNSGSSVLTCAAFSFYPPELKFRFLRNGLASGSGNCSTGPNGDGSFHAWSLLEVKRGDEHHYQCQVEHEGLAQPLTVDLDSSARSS
T11 chain 2: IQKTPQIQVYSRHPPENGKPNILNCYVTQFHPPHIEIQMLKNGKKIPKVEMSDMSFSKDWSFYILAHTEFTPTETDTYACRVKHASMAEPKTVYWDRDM
The experiment in a line: SPR, pH 6.0.

For assay [13], the target named is human FcRn (human, UniProt P55899). In words: SPR, pH 6.0.
For assay [14], the target named is T12, cynomolgus FcRn (cynomolgus, UniProt Q8SPV9).
T12 chain 1: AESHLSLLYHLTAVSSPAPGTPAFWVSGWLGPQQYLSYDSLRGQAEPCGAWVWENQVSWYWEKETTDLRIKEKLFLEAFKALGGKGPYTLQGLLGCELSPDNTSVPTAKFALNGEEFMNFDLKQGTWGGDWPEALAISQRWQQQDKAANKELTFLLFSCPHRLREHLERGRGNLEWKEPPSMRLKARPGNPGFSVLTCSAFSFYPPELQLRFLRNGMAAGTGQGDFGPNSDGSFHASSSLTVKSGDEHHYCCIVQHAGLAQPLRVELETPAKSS
T12 chain 2: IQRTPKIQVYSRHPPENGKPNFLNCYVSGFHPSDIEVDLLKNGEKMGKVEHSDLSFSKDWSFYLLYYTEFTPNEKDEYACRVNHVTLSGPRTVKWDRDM
The experiment in a line: SPR, pH 6.0.

B1: Tandem diabody EGFR arm (antibody, V domains shown)
VH: QVQLQESGPGLVKPSETLSLTCTVSGGSVSSGSYYWSWIRQPPGKGLEWIGYIYYSGSTNYNPSLKSRVTISVDTSKNQFSLKLSSVTAADTAVYYCARNPISIPAFDIWGQGTMVTVSS
VL: QPVLTQPPSVSVAPGKTARITCGGNNIGSKSVHWYQQKPGQAPVLVIYYDSDRPSGIPERFSGSNSGNTATLTISRVEAGDEADYYCQVWDTSSDHVLFGGGTKLTVL
A word on the Kd: it is the free concentration of one partner at which half of the binding sites on the other are occupied at equilibrium, for simple one-to-one binding. B1 gave a Kd in assay [1] of 0.5 nM.

B2: scFv-IgAb_02 (full) (antibody)
chain 1: QVQLVQSGAEVKKPGESLKVSCKASGYTFTSYYMHWVRQAPGQGLEWMGIINPSGGSTSYAQKFQGRVTMTRDTSTSTVYMELSSLRSEDTAVYYCARGSAYYYDFADYWGQGTLVTVSSASTKGPSVFPLAPSSKSTSGGTAALGCLVKDYFPEPVTVSWNSGALTSGVHTFPAVLQSSGLYSLSSVVTVPSSSLGTQTYICNVNHKPSNTKVDKKVEPKSCDKTHTCPPCPAPEFEGGPSVFLFPPKPKDTLMISRTPEVTCVVVAVSHEDPEVKFNWYVDGVEVHNAKTKPREEQYNSTYRVVSVLTVLHQDWLNGKEYKCKVSNKALPAPIEKTISKAKGQPREPQVYTLPPSREEMTKNQVSLTCLVKGFYPSDIAVEWESNGQPENNYKTTPPVLDSDGSFFLYSKLTVDKSRWQQGNVFSCSVMHEALHNHYTQKSLSLSPGGGGGSGGGGSQVQLQESGPGLVKPSETLSLTCTVSGGSVSSGSYYWSWIRQPPGKGLEWIGYIYYSGSTNYNPSLKSRVTISVDTSKNQFSLKLSSVTAADTAVYYCARNPISIPAFDIWGQGTMVTVSSGGSGGSGGSGGSGGSGGSQPVLTQPPSVSVAPGKTARITCGGNNIGSKSVHWYQQKPGQAPVLVIYYDSDRPSGIPERFSGSNSGNTATLTISRVEAGDEADYYCQVWDTSSDHVLFGGGTKLTVL
chain 2: SYVLTQPSSVSVAPGQTATISCGGHNIGSKNVHWYQQRPGQSPVLVIYQDNKRPSGIPERFSGSNSGNTATLTISGTQAMDEADYYCQVWDNYSVLFGGGTKLTVLGQPKAAPSVTLFPPSSEELQANKATLVCLISDFYPGAVTVAWKADSSPVKAGVETTTPSKQSNNKYAASSYLSLTPEQWKSHRSYSCQVTHEGSTVEKTVAPTECS
Consider B2, for which the binding result in assay [2], in assay [3], in [4], in assay [5], in assay [6] and in [7] was “no binding” in each case. The binding result in assay [8], in [9], in assay [10] and in assay [11] was “no binding” throughout. In addition, the Kd in [12] was determined as 180 nM; in assay [13], 430 nM; in assay [14], 842 nM.

The values above are taken from patent US20230190900 (published 2023).
